Positions count from the first letter of the chain named.

First the molecules themselves.
B1: human mature Macrophage Derived Chemokine, MDC(1-69) (ligand)
chain: GPYGANMEDSVCCRDYVRYRLPLRVVKHFYWTSDSCPRPGVVLLTFRDKEICADPRVPWVKMILNKLSQ
notes: also called mature MDC; human mature MDC
B2: MDC-wvas (ligand)
chain: B1 chain with W59A, V60S
notes: Chemically synthesized analog
B3: MDC-eyfy (ligand)
chain: B1 chain with H28E, F29Y, Y30F, W31Y
B4: murine Leu-MDC (ligand)
chain: LGPYGANVEDSICCQDYIRHPLPSRLVKEFFWTSKSCRKPGVVLITVKNRDICADPRQVWVKKLLHKLS
B5: TARC (Thymus and Activation-Regulated Chemokine) (ligand)
chain: ARGTNVGRECCLEYFKGAIPLRKLKTWYQTSEDCSRDAIVFVTVQGRAICSDPNNKRVKNAVKYLQSLERS
notes: The whole entry is named here
B6: MDC (9-69) (ligand)
chain: DSVCCRDYVRYRLPLRVVKHFYWTSDSCPRPGVVLLTFRDKEICADPRVPWVKMILNKLSQ
notes: Chemically synthesized N-terminal deletion analog
B7: human C-C chemokine receptor 4 (CCR4) (receptor)
chain: MNPTDIADTTLDESIYSNYYLYESIPKPCTKEGIKAFGELFLPPLYSLVFVFGLLGNSVVVLVLFKYKRLRSMTDVYLLNLAISDLLFVFSLPFWGYYAADQWVFGLGLCKMISWMYLVGFYSGIFFVMLMSIDRYLAIVHAVFSLRARTLTYGVITSLATWSVAVFASLPGFLFSTCYTERNHTYCKTKYSLNSTTWKVLSSLEINILGLVIPLGIMLFCYSMIIRTLQHCKNEKKNKAVKMIFAVVVLFLGFWTPYNIVLFLETLVELEVLQDCTFERYLDYAIQATETLAFVHCCLNPIIYFFLGEKFRKYILQLFKTCRGLFVLCQYCGLLQIYSADTPSSSYTQSTMDHDLHDAL
notes: Expressed on stably transfected murine pre-B L1.2 cells (L1.2/CCR4, L1.2/huCCR4); also called huCCR4; MDC receptor CCR4

The target of assay [1] is B7. The assay can be described thus: competition with 0.1 nM 125I-labeled human MDC on L1.2/huCCR4 cells; LARC at 100 nM.
Assay [2] deals with B7. The assay can be described thus: displacement of 0.5 nM MDC-SEAP from CCR4-transfected L1.2 cells by unlabeled chemokine. On the procedure:
(§1) The MDC-SEAP was used as a probe to examine MDC binding to CCR4-transfected L1.2 cells. For displacement and saturation experiments, transfected L1.2 cells (approx. 3×10^5) were incubated for one hour at 16° C. in the presence of 0.5 nM MDC-SEAP in the presence or absence of various concentrations of unlabeled chemokines in 200 μl binding buffer (RPMI 1640 media containing 25 mM HEPES, pH 7.4, 1% BSA, and 0.02% sodium azide). Following incubation, the cells were washed four times in binding buffer and lysed in 50 μl of 10 mM Tris-HCl, pH 8.0, and 1% Triton X-100. Samples were heated at 65° C. for 15 minutes to inactivate cellular phosphatases, centrifuged, and stored at −20° C. until assayed.
(§2) Alkaline phosphatase activity in 10 μl of sample was determined by a chemiluminescence assay using the Great Escape Detection kit (Clontech, Palo Alto, Calif.) according to the manufacturer's instructions. […] Binding competition curves were fitted (TableCurve™) using a three-parameter logistic model described by the equation y=a/[1+(x/b)^c], where y is the amount of labelled ligand bound, a is the maximum amount of labelled ligand bound, x is the concentration of the competitive chemokine, b is the IC$50$, and c is a parameter that determines the slope of the curve at the IC$50$.

Assay [3] deals with B7. The assay can be described thus: CCR4 binding assay on L1.2/CCR4 cells, essentially as in Example 25.
Assay [4] addresses B7. Nature of the assay: cell-based or functional assay.
Assay [5] addresses T1, MDC-SEAP fusion protein (human, UniProt P05187 23-506).
T1 construct: mature; Expressed from pcDNA3 in COS cells and used as filtered culture supernatant; also called synthetic MDC-SEAP
Nature of the assay: saturation binding of MDC-SEAP to CCR4-transfected L1.2 cells, Scatchard analysis. On the procedure: as §1, §2

For the molecule “chemokine LARC (from UniProt P78556 27-96) (ligand)”, the cpm of labeled MDC bound in the presence of the competitor in assay [1] was 3800 cpm.

In general, IC50 refers to the midpoint of a concentration-inhibition curve. B1: in assay [2], the IC50 is 0.65 nM and the “fold higher affinity than TARC” value is greater than 3 fold.

As for B2, the “fold less affinity than MDC” value in assay [3] was roughly 500 fold.

Regarding B3, in assay [3], the binding result is given as “binds”.

For B4, the “chemotaxis of L1.2/huCCR4 cells: response relative to full-length murine MDC” value in assay [4] was roughly 20 % lower.

Molecule B5 registered an IC50 in assay [2] of 2.1 nM.

Take B6: the binding result in assay [3] is reported as “binds”.

The Kd is the free concentration of one partner at which half of the binding sites on the other are occupied at equilibrium, for simple one-to-one binding. For the molecule B7, in assay [5], the Kd worked out at 0.18 nM.

These data come from patent US7018627 (ICOS, dated 2006).
